Reference: publication PMC7734321

Experiments:
Experiment in all cases: MST
Conditions in all cases: N6 of strand 1 = tetrahydrofuran (F, abasic site analog), opposite G; MST: 50 mM Tris-HCl pH 7.5, 50 mM KCl, 1 mM EDTA, 1 mM DTT, 7% glycerol, 25 C, 10 min, 0.5 uM DNA; authors call Kd values estimates only
[1] = target: T1, Fpg (formamidopyrimidine-DNA glycosylase) (Escherichia coli) (UniProt P05523)
T1 sequence: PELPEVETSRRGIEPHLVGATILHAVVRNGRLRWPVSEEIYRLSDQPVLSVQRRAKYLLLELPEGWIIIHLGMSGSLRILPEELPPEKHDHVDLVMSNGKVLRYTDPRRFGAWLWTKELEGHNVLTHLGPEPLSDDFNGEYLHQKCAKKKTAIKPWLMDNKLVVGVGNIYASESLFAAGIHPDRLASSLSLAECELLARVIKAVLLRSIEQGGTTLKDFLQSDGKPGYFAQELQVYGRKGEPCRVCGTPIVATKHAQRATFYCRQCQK

[2] = target: NEIL1 (endonuclease VIII-like 1) (Homo sapiens) (UniProt Q96FI4)
NEIL1 (endonuclease VIII-like 1) (Homo sapiens), sequence (Q96FI4 2-390): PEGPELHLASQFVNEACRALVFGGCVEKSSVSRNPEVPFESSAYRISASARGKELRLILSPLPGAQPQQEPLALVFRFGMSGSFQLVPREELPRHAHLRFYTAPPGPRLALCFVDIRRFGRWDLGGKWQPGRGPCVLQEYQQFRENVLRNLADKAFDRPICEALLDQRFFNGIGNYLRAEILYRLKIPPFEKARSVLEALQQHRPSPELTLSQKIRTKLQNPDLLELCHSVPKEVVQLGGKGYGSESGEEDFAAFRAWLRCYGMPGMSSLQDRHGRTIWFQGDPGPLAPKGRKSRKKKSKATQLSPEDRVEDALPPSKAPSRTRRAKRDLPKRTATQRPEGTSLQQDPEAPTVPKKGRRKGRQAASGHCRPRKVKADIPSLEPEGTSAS

[3] = target: T2, NTH1 (endonuclease III) (Homo sapiens) (UniProt P78549)
T2 sequence: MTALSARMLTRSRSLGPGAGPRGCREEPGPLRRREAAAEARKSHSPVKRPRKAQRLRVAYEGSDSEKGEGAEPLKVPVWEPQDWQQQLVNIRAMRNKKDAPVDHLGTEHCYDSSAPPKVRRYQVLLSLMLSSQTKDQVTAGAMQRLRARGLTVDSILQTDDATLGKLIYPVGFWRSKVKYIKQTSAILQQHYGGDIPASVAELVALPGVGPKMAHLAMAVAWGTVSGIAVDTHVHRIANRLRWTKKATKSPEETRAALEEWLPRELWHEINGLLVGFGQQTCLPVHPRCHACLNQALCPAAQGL

[4] = target: T3, Nei (endonuclease VIII) (Escherichia coli) (UniProt P50465)
T3 sequence: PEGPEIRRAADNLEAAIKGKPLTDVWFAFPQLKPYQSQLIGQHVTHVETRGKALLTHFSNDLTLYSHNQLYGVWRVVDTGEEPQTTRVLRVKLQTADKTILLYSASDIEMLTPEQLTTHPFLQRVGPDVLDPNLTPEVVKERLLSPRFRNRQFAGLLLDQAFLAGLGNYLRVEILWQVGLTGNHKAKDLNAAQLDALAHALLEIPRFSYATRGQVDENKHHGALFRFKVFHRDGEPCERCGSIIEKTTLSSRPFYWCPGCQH

[5] = target: OGG1 (8-oxoguanine-DNA glycosylase) (Homo sapiens) (UniProt O15527)
OGG1 (8-oxoguanine-DNA glycosylase) (Homo sapiens), sequence (O15527 whole entry): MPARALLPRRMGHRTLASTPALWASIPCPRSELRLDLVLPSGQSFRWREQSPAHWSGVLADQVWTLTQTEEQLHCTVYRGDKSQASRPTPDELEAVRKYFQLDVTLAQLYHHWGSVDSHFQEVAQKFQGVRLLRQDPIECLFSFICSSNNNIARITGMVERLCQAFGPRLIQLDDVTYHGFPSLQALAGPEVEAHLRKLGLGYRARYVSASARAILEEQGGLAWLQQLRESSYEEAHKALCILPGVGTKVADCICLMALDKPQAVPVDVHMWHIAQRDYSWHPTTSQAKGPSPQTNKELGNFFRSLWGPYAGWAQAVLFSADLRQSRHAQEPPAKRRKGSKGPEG

For “GCTCANGTACAGAGCTG / CAGCTCTGTACGTGAGC [F/G]”, the Kd [1] was 1900 nM, the Kd [2] was 4.4 µM and the Kd [3] was 300 nM. For the same sequence, the Kd [4] was 500 nM and the Kd [5] was 2800 nM.
